The text below walks through data of a protein production outcome set (Wang et al. 2014).

This data set can be described thus: label from the status in PepcDB records.
Regarding “IKILKNFDEAIIVDAASLDPESLYQRTYAGKMTFGRVSDLGQFIRESEPEPDVRKSKGSMFSQAMKKWVQGNTDEAQEELAWKIAKMIVSDIMQQAQYDQPLEKSTKL”, the protein production entry is reported as “failed”.
In the case of “MFLKRIELQREKVLSFQEYPFSIPAIKHFQRLELKSRVTFFVGENGSGKSTLLEAIADKCEFNTAGGGRNNYYEVDASESALGDYIRLSWLPKVSNGFFLRAESFYHFASHVDEVDARHAYGGRSLHHQSHGEAFLSLFANRFNRKGIYLLDEPEAALSPRRQLSFLAILHDLVSSGDSQFIIATHSPILLGYPHATILSFDHGTIEETTYEQTEHYQLTRYFLENRERMLRELLGELEHHHHHH” it was “failed”.
As for “MAKKSTRTTPEDSQASTTDSAATSTASEATQAATSATDDQAEQTTAVDPTQQITDLKAQLDAKDDQLLRAQAEIVNMQNRNKKEQAALLKYDGQALAKDVLPVLDNLERALATPADDEAAQQLKKGVEMVYGHLQDALKKHGVTEVAAAGEKFDPNIHQAVQTVPVDDDHPADTVVQVLQRGYLLKDRTLRPAMVVVAQ”, the entry is “failed”.
As for “MWWSGLASQSKAQETPGRRGLEERKQLIMEIYNSLRSADIASIEFEGPEIAVYIRNPKFIVENENVVKDLARKLRKRIVVRTHPKSRKSMEYTIKFIRENVPPDVGIVDIQFDDVLGEVRVIAEKPGKLMGRGKVFRNLVLAETGWRLEVYRKPLLQSGLLDSVLRHLQRHAEERRRALRDIGERIFRDTLIGTRHVRVVGLGSFGEVGRSAILVDTGESKVLLDAGLSPSGYGPDSYPYYWSPEFRVDELDAVVISHAHLDHVGTLPLLFKYGFRGPVYATPPTRDIMIIVLRDLINLMRKAQGEPPFEPRDVEKALTRLIPVNYNTVTDVAPDIKMTFINAGHILGSSMVHLHIGQGLYNILYTADFKFYRIKNDRSTRLLPPAEYSFQRVEALIMEATYGSKETQPRAEAEEELINLVNKVYKRGGKLLIPVMAVGRGQEILVVLNEALRSGKIPEIPIYVDGMVYEVTAVYTNYPELLVKPIRDRILKQGENPFEGPTTVYVTDHYKRDEAMYSDKPAIILSTSGMMNGGPIVEYFKYLADDPRNALAFVSYQAPGTLGRRLQSGEREIELEMDGGIRRIKVNMEIVSIEGFTGHSTRGELLSFLRRLNPKPRNIVLNHGEPSAIAALAHTVKTGWSKLGFESPPIIEAPENLEGVRLYPRNLKMKLALQHS”, the entry is “failed”.
Regarding “RSAEALFEKAVTPSDVGKLNRLVIPKHHAEKHFPLPSSNVSVKGVLLNFEDVNGKVWRFRYSYWNSSQSYVLTKGWSRFVKEKNLRAGDVVSFSRSNGQDQQLYIGWKSRSGSDLDA”, the protein production entry is reported as “not failed”.
As for “MALHPTDYFRKERIFVDRETCIDNFRRFIQNSNNQDYNALFYYGIAGIGKSKLQHKLQNILNTEYPEMLWVSMDLENDTHRNVSTFLIALRNKIQKKCNVRFYKFNLAHAIFSKKSRPDIPLNKETYPMLKEDGFFYEILNSLNETAFGPFISIPVKRIVDIINQAPGNVRRHFGELPIDINKLESMEAHEIEKKLPGIFAADFTGSLGTNSRACIFIDTYEAIWKGWRGIGSFSEKDKWIRKCLIPNMPGVSWVICGRKQIKSLWIKDEQDWEMCMKEYPIEDLPEEYSEQFLKEYIEEEDIRSVIVKASEGVPCYLNLSVDTYEQVSRIKKPEVKDFPNTKIEVFEKFVKYLDNNEKRTLYILSAPNSWDRNLFKKLINEFNPTYSIYEFSDLIKYSFVKKITDEKFSLHQLMRKNLQEYQDPTYRKDVHLFLHEYYSNKIKDVDVRSITQEHEISLIEAYYHAREVLKFEDLGGWIAKYTEPFNEAGYWKTIYPMIEDFAEILKEKFGPDNIYYGIFVRKLAFLNEDRGKYNEAIFYYQQVLKIFEKNMGKKILENNDLVVDDHSIAMVTNDLANCYLSIGEYEKALTLQQNSLKTVQNKVNKDPLYIALLQQNIALTYQYLGQYNKAMELCQEALTVREACLGEEDLEVAKTAENLAVIHQQLGNYKEAFALAKRALNIREKKLGSKHPLVATNLSSLGVLCIIMGNLEEGLKYNQRAVKIAEERFEGDHISVAETLSNLGATYQYMLRYDDALEAYQRALNITEHSLGLENPKLVNILNNIAETYRKMENYEKALEFYQRALDIARNHLGKEHPTIALIMNNLGRLYMNTKEFDKAHTICQQALDIRGKTLGTDHVDFAITSLDLGIIYGCVGRRDYALPLLEHSLRIFEQKLGSDHIYTKNAKLVVDTLKESR”, the entry is “failed”.
